Among the data in the RNAGym collection of RNA variant scans (doi:10.7554/elife.80360) are self-cleavage values, retold here.

B1: Hairpin Ribozyme (parent)
chain: GUCCUCUUUCACGUGCGCGUGAAAGAGAGAAGUGAACCAGAGAAACACACGUUGUGGUAUAUUACCUGGUA

The series covers variants of B1. As to the kind of experiment: self-cleavage, relative activity (ratio to wild type); higher = more cleavage; co-transcriptional.
Regarding GUCCUCUUGCACGUGCGCGUGAAAGAGAGAAGUGAACCAGAGAAACACACGUUGUGGUAUCUUACCUGGUA, the self-cleavage stood at 0.115.

Turning to GUCCUCUUGCACGUGCGCGUGAAAGAGAGAAGUGAAUCAGAGAAACACACGUUGUGGUAUAUUACCUGGUA, the self-cleavage came out at 0.5.

As for GUCCUCUUUAACGUGCGCGUGAAAGGGAGAAGUGAACCAGAGAAACACACGUUGUGGUAUAUUACCUGGUA, the self-cleavage was 0.663.

As for GUCCUCUUGCACGUGCGCGUGAAAGAGAGAAGUGAACCAGAGAAACACACGUUGUGGUGUAUUACCUGGUA, the self-cleavage came out at 0.241.

For GUCCUCUUGCACGUGCGCGUGAAAGAGAGAAGUGAACCAGAGAAACACACGUUGUGGUAUAUUACCUAGUA, the self-cleavage was determined as 0.247.

For GUCCUCUUGCACGUGCGCGUGAAAGAGAGAAGUGAACCAGAGAAACACACGUUGUGGUAUAUUUCCUGGUA, the self-cleavage was 0.164.

Regarding GUCCUCUUCCACGUGCGCGUGAAAGAGAGAAGUGAACCAGAGAAACACACGUUGCGGUAUAUUACCUGGUA, the self-cleavage was 0.134.

Turning to GUCCUCUUCCACGUGCGCGUGAAAGAGAGAAGUGAACCAGAGAAACACACGUUGAGGUAUAUUACCUGGUA, the self-cleavage was determined as 0.299.

Regarding GUCCUCUUGCCCGUGCGCGUGAAAGAGAGAAGUGAACCAGAGAAACACACGUUGUGGUAUAUUACCUGGUA, the self-cleavage stood at 0.416.

Take GUCCUCUUCCACGUGCGCGUGAAAGAGAGAAGUGAACCAGAGAAACACACGUUGUGGGAUAUUACCUGGUA: the self-cleavage was 0.729.

Regarding GUCCUCUUGCACGUGCGCGUGAAAGAGAGAAGUGAACCAGAGAAACACACGUUGUAGUAUAUUACCUGGUA, the self-cleavage worked out at 0.18.

On to GUCCUCUUGCACGUGCGCGUGAAAGAGAGAAGUGAACCAGAGAAACACACGUUGUCGUAUAUUACCUGGUA, for which the self-cleavage was 0.0826.

As for GUCCUCUUGCACGUGCGCGUGAAAGAGAGAAGUGAACCGGAGAAACACACGUUGUGGUAUAUUACCUGGUA, the self-cleavage amounted to 0.206.

As to GUCCUCUUGCACGUGCGCGUGAAAGAGAGAAGUGAACCUGAGAAACACACGUUGUGGUAUAUUACCUGGUA, the self-cleavage turned out to be 0.158.

With GUCCUCUUGCACGUGCGCGUGAAAGUGAGAAGUGAACCAGAGAAACACACGUUGUGGUAUAUUACCUGGUA, the self-cleavage was determined as 0.477.

With GUCCUCUUGCACGUGCGCGUGAAAGAGAGAAGUGAACCAGAGAAACACACGUCGUGGUAUAUUACCUGGUA, the self-cleavage came to 0.736.

As for GUCCUCUUGCACGUGCGCGUGAAAGAGAGAAGUGAACCAGAGAAACACACGUAGUGGUAUAUUACCUGGUA, the self-cleavage was determined as 0.672.

Take GUCCUCUUCCACGUGCGCGUGAAAGAGAGAAGUGAACCAGAGAAACACACGUUGUGGUAUACUACCUGGUA: the self-cleavage turned out to be 0.143.

For GUCCUCUUGCACGUGCGCGUGAAAGAGAGAAGUGAACCAGAGCAACACACGUUGUGGUAUAUUACCUGGUA, the self-cleavage stood at 0.0922.

As to GUCCUCUUGCACUUGCGCGUGAAAGAGAGAAGUGAACCAGAGAAACACACGUUGUGGUAUAUUACCUGGUA, the self-cleavage turned out to be 0.678.

On to GUCCUCUUGCACAUGCGCGUGAAAGAGAGAAGUGAACCAGAGAAACACACGUUGUGGUAUAUUACCUGGUA, for which the self-cleavage is 0.536.

Take GUCCUCUUGCACGUGCGCGUGAAAGAGAGAAAUGAACCAGAGAAACACACGUUGUGGUAUAUUACCUGGUA: the self-cleavage came to 0.128.

Turning to GUCCUCUUUAACGUGCGCGUGAAAGAGAGAAGUGAACCAGGGAAACACACGUUGUGGUAUAUUACCUGGUA, the self-cleavage was found to be 0.694.

Consider GUCCUCUUGCACGUGCGCGUGAAAGAGAGAAGUGAACCAGAGAAACUCACGUUGUGGUAUAUUACCUGGUA, for which the self-cleavage was 0.0873.

With GUCCUCUUGCACGUGCGCGUGAAAGAGAGAAGUGAACCAGAGAAACCCACGUUGUGGUAUAUUACCUGGUA, the self-cleavage is 0.406.

For the variant GUCCUCUUUAACGUGCGCGUGAAAGAGAGAAGUGAACCCGAGAAACACACGUUGUGGUAUAUUACCUGGUA, the self-cleavage turned out to be 0.463.

On to GUCCUCUUGCACGUGCGCGUGAAAGAGAGAAGUGAACCAGAGAAACACACGUUGUGGUAUACUACCUGGUA, for which the self-cleavage turned out to be 0.323.

With GUCCUCUUGCACGUGCGCGUGAAAGAGAGAAGUUAACCAGAGAAACACACGUUGUGGUAUAUUACCUGGUA, the self-cleavage amounted to 1.15.

As to GUCCUCUUGCACGUGCGCGUGAAAGAGAGAAGUGUACCAGAGAAACACACGUUGUGGUAUAUUACCUGGUA, the self-cleavage stood at 0.631.

As to GUCCUCUUGCACGUGCGCGUGAGAGAGAGAAGUGAACCAGAGAAACACACGUUGUGGUAUAUUACCUGGUA, the self-cleavage stood at 0.72.

GUCCUCUUGCACGUGCGCGUGAAAGAGAGAAGUGAACCAGAGAGACACACGUUGUGGUAUAUUACCUGGUA: the self-cleavage worked out at 0.129.

With GUCCUCUUGCACGUGCGCGUGAAAGAGAGAAGUGAACCAGAGACACACACGUUGUGGUAUAUUACCUGGUA, the self-cleavage came to 0.0667.

Regarding GUCCUCUUGCACGUGCGCGUAAAAGAGAGAAGUGAACCAGAGAAACACACGUUGUGGUAUAUUACCUGGUA, the self-cleavage is 0.554.

Regarding GUCCUCUUGCACGUGCGCGUGAAAGAGAGAAGUGAACCAGAGAAACACACGUUGUGGUAUAUUAACUGGUA, the self-cleavage was determined as 0.609.

On to GUCCUCUUGCACGUGCGCGUGAAAGAGAGAAGUGAACCAGAGAAACACACGUUGUGUUAUAUUACCUGGUA, for which the self-cleavage is 0.379.

On to GUCCUCUUGCACGUGCGCGUGAAAGAGAGAAGUGAACCAGAGAAACACACGUUGGGGUAUAUUACCUGGUA, for which the self-cleavage came to 0.0748.

For GUCCUCUUUAACGUGCGCGUGAAAGAGAGAAGUGAACCAGAGAAACACACGUUGUGGUAUAUUACCUGGUA, the self-cleavage turned out to be 0.722.

Regarding GUCCUCUUGCAUGUGCGCGUGAAAGAGAGAAGUGAACCAGAGAAACACACGUUGUGGUAUAUUACCUGGUA, the self-cleavage was determined as 0.664.
